In patent publication US10766960 (dated 2020):
Residue numbers refer to the chain shown, from its start. Like-named read-outs stand apart in the source and are kept apart here.

B1: H240-Kn234/H240-Hl068/L73-k0 (antibody)
chain 1: QDQLVQSGAEVKKPGASVKVSCKASGFNIKDTYIQWVRQAPGQGLEWMGRIDPLRKQTKYREKFEGRVTITADTSTNTAYMELSSLRSEDTAVYYCVRSGREFDYWGQGTLVTVSSASTKGPSVFPLAPSSKSTSGGTAALGCLVKDYFPEPVTVSWNSGALTSGVHTFPAVLQSSGLYSLSSVVTVPSSSLGTQTYICNVNHKPSNTKVDKKVEPKSCDKTHTCPPCPAPEDYWGPIVFLFPPKPKDTLMISRTPEVTCVVVDVSDEDPEVKFNWYVDGVEVHNAKTKPREEQYNATYRVVSVLTVLHQDWLNGKEYKCKVSNKDLPAPIEKTISKAKGQPREPQVCTLPPSRDELTKNQVSLWCLVKGFYPSDIAVEWESNGQPENNYKTTPPVLDSDGSFFLYSKLTVDKSRWQQGNVFSCSVMHEALHNHYTQKSLSLSP
chain 2: QDQLVQSGAEVKKPGASVKVSCKASGFNIKDTYIQWVRQAPGQGLEWMGRIDPLRKQTKYREKFEGRVTITADTSTNTAYMELSSLRSEDTAVYYCVRSGREFDYWGQGTLVTVSSASTKGPSVFPLAPSSKSTSGGTAALGCLVKDYFPEPVTVSWNSGALTSGVHTFPAVLQSSGLYSLSSVVTVPSSSLGTQTYICNVNHKPSNTKVDKKVEPKSCDKTHTCPPCPAPELLGGPSVFLFPPKPKDTLMISRTPEVTCVVVDVSHEEPEVKFNWYVDGVEVHNAKTKPREEQYNSTYRVVSVLTVLHQDWLNGKEYKCKVSNDALPKPIEETISKAKGQPREPQVYTLPPSRCELTKNQVSLSCAVKGFYPSDIAVEWESNGQPENNYKTTPPVLDSDGSFFLVSKLTVDKSRWQQGNVFSCSVMHEALHNHYTQKSLSLSP
chain 3: DIQMTQSPSSLSASVGDRVTITCRASQDIHKYIAWYQQKPGQAPRLLIQYTSTLQPGVPSRFSGSGSGTDYTFTISSLQPEDIATYYCLQYEQLRTFGGGTKVEIKRTVAAPSVFIFPPSDEQLKSGTASVVCLLNNFYPREAKVQWKVDNALQSGNSQESVTEQDSKDSTYSLSSTLTLSKADYEKHKVYACEVTHQGLSSPVTKSFNRGEC
B2: H240-Kn205/H240-Hl212/L73-k0 (antibody)
chain 1: B1 chain 1 with D233Y, Y234L, W235G, I238S, D267H, Y295W, A297C, D326A
chain 2: B1 chain 2 with S238D, E269D, D325K, K329A, E333V
chain 3: B1 chain 3
B3: H240-Kn204/H240-Hl211/L73-k0 (antibody)
chain 1: B1 chain 1 with D233Y, Y234L, W235G, I238S, D267H, K289Y, Y295W, A297S, D326A
chain 2: B1 chain 2 with S238D, E269D, D325K, K329M, E333V
chain 3: B1 chain 3
B4: H240-Kn198/H240-Hl076/L73-k0 (antibody)
chain 1: B1 chain 1 with D233L, Y234Q, I238M, D269E, D326A
chain 2: B1 chain 2 with K329M
chain 3: B1 chain 3
B5: H240-Kn230/H240-Hl068/L73-k0 (antibody)
chain 1: B1 chain 1 with D233V
chain 2: B1 chain 2
chain 3: B1 chain 3
B6: H240-Kn218/H240-Hl068/L73-k0 (antibody)
chain 1: B1 chain 1 with D233Q, I238M
chain 2: B1 chain 2
chain 3: B1 chain 3
B7: H240-Kn201/H240-Hl210/L73-k0 (antibody)
chain 1: B1 chain 1 with D233F, Y234Q, I238M, D269E, D326A
chain 2: B1 chain 2 with K329A
chain 3: B1 chain 3
B8: H240-Kn224/H240-Hl068/L73-k0 (antibody)
chain 1: B1 chain 1 with D233H, I238M
chain 2: B1 chain 2
chain 3: B1 chain 3
B9: H240-Kn198/H240-Hl068/L73-k0 (antibody)
chain 1: B1 chain 1 with D233L, Y234Q, I238M, D269E, D326A
chain 2: B1 chain 2
chain 3: B1 chain 3
B10: H240-Kn189/H240-Hl068/L73-k0 (antibody)
chain 1: B1 chain 1 with D233S, I238M
chain 2: B1 chain 2
chain 3: B1 chain 3
B11: H240-Kn202/H240-Hl214/L73-k0 (antibody)
chain 1: B1 chain 1 with D233E, Y234Q, I238M, D269E, D326A
chain 2: B1 chain 2 with K329F
chain 3: B1 chain 3
B12: H240-Kn227/H240-Hl214/L73-k0 (antibody)
chain 1: B1 chain 1 with D233E, Y234Q, D269E, D326A
chain 2: B1 chain 2 with K329F
chain 3: B1 chain 3
B13: H240-Kn207/H240-Hl076/L73-k0 (antibody)
chain 1: B1 chain 1 with D233V, Y234Q, I238M, D269E, D326A
chain 2: B1 chain 2 with K329M
chain 3: B1 chain 3
B14: H240-Kn222/H240-Hl068/L73-k0 (antibody)
chain 1: B1 chain 1 with D233A, I238M
chain 2: B1 chain 2
chain 3: B1 chain 3
B15: H240-Kn213/H240-Hl076/L73-k0 (antibody)
chain 1: B1 chain 1 with D233A, Y234Q, I238M, D269E, D326A
chain 2: B1 chain 2 with K329M
chain 3: B1 chain 3
B16: H240-Kn221/H240-Hl068/L73-k0 (antibody)
chain 1: B1 chain 1 with D233T, I238M
chain 2: B1 chain 2
chain 3: B1 chain 3
B17: H240-Kn201/H240-Hl214/L73-k0 (antibody)
chain 1: B1 chain 1 with D233F, Y234Q, I238M, D269E, D326A
chain 2: B1 chain 2 with K329F
chain 3: B1 chain 3

How the values were obtained:
Test in all cases: SPR
FcgRIIa H [1] = target: T1, FcgRIIa H (human, UniProt P12318)
T1 chain: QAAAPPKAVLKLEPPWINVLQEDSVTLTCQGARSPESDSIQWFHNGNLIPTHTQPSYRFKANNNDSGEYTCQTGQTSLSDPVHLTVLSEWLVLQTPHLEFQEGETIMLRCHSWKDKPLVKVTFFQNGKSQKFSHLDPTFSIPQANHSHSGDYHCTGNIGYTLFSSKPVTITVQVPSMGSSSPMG

FcgRIIIa F [2] = target: T2, FcgRIIIa F (human, UniProt P08637)
FcgRIa [3] = target: T3, FcgRIa (human, UniProt P12314)
T3 chain: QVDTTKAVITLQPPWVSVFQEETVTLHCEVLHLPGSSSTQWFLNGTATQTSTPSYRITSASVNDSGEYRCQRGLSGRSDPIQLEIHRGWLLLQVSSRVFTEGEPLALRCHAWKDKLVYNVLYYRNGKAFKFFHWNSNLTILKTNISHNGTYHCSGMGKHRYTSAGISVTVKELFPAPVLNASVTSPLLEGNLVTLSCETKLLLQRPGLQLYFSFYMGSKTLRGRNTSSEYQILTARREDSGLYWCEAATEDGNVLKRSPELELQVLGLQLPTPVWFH

FcgRIIa R [4] = target: T4, FcgRIIa R (human, UniProt P12318)
T4 chain: T1 chain with H134R

FcgRIIb [5] = target: T5, FcgRIIb (human, UniProt P31994)
T5 chain: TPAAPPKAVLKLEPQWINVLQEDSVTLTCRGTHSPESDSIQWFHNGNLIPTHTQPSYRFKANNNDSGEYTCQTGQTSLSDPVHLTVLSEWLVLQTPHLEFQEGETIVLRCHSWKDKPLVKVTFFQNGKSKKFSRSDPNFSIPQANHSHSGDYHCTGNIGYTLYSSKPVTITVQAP

FcgRIIIa V [6] = target: T6, FcgRIIIa V (human, UniProt P08637)
FcgRIIIa V [7] = target: T6, FcgRIIIa V; remark: listed apart in the source
FcgRIIIa F [8] = target: T2, FcgRIIIa F; remark: listed apart in the source
FcgRIIb [9] = target: T5, FcgRIIb
FcgRIIa R [10] = target: T4, FcgRIIa R
FcgRIIa H [11] = target: T1, FcgRIIa H
FcgRIa [12] = target: T3, FcgRIa

T6 sequence (P08637 17-208 F176V): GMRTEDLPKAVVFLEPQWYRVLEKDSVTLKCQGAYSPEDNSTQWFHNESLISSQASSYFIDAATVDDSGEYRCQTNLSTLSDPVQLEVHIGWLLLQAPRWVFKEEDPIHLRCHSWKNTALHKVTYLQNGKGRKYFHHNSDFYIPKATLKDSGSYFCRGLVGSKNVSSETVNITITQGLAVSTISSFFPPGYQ
T2 sequence (P08637 17-208): as the sequence (P08637 17-208 F176V) above, with V160F counted along it

Binder	Kd (FcgRIIa H [1])	Kd (FcgRIIIa F [2])	Kd (FcgRIa [3])	Kd (FcgRIIa R [4])	Kd (FcgRIIb [5])	Kd (FcgRIIIa V [6])	Kd (FcgRIIIa V [7])	Kd (FcgRIIIa F [8])	Kd (FcgRIIb [9])	Kd (FcgRIIa R [10])	Kd (FcgRIIa H [11])	Kd (FcgRIa [12])
B1	65 nM	2.3 nM	0.19 nM	21 nM	140 nM	0.68 nM	–	–	–	–	–	–
B2	–	–	–	–	–	–	4.2 nM	12 nM	1600 nM	610 nM	370 nM	0.054 nM
B3	–	–	–	–	–	–	7.4 nM	14 nM	1300 nM	640 nM	760 nM	0.038 nM
B4	–	–	–	–	–	–	0.54 nM	1.5 nM	6300 nM	630 nM	140 nM	0.083 nM
B5	22 nM	2.6 nM	0.18 nM	9.6 nM	150 nM	0.93 nM	–	–	–	–	–	–
B6	–	–	–	–	–	–	0.5 nM	3.5 nM	220 nM	37 nM	33 nM	0.14 nM
B7	110 nM	3.2 nM	0.069 nM	430 nM	7200 nM	0.49 nM	–	–	–	–	–	–
B8	–	–	–	–	–	–	0.53 nM	4 nM	360 nM	54 nM	57 nM	0.14 nM
B9	49 nM	3.7 nM	0.24 nM	240 nM	1600 nM	0.85 nM	–	–	–	–	–	–
B10	–	–	–	–	–	–	0.52 nM	3.2 nM	150 nM	23 nM	48 nM	0.16 nM
B11	440 nM	2.6 nM	0.09 nM	830 nM	6100 nM	0.95 nM	–	–	–	–	–	–
B12	290 nM	1.8 nM	0.13 nM	370 nM	2800 nM	0.8 nM	–	–	–	–	–	–
B13	–	–	–	–	–	–	0.49 nM	1.9 nM	5200 nM	680 nM	170 nM	0.085 nM
B14	–	–	–	–	–	–	0.54 nM	3.3 nM	190 nM	28 nM	49 nM	0.14 nM
B15	–	–	–	–	–	–	0.73 nM	2.6 nM	6100 nM	820 nM	210 nM	0.082 nM
B16	–	–	–	–	–	–	0.47 nM	2.7 nM	220 nM	29 nM	44 nM	0.18 nM
B17	150 nM	3.9 nM	0.091 nM	560 nM	3700 nM	1.4 nM	–	–	–	–	–	–
